Here are results for 57 molecules from patent US20230151068A1.

For this assay, the target named is biotinylated His-Avi-TEAD (194-411) (UniProt P28347). The assay can be described thus: SSM screen, enrichment after two rounds of sorting.
The molecule GSPDEYIERVKECCKKGDIQCCLRYFEESGDPNVMLICLFCP (designed binder) [A08V variant of SEQ ID NO: 1] came in with an enrichment score of -4.43.
The figure for GSPDEYIERAKECCKKGDIDCCLRYFEESGDPNVMLICLFCP (designed binder) [Q18D variant of SEQ ID NO: 1] is -0.19; for GSPPEYIERAKECCKKGDIQCCLRYFEESGDPNVMLICLFCP (designed binder) [D02P variant of SEQ ID NO: 1] it is -2.11; for GSPFEYIERAKECCKKGDIQCCLRYFEESGDPNVMLICLFCP (designed binder) [D02F variant of SEQ ID NO: 1] it is -3.41.
For GSPDYYIERAKECCKKGDIQCCLRYFEESGDPNVMLICLFCP (designed binder) [E03Y variant of SEQ ID NO: 1] the value was -0.36; for GSPDEYIEFAKECCKKGDIQCCLRYFEESGDPNVMLICLFCP (designed binder) [R07F variant of SEQ ID NO: 1], -1.04; for GSPDEYIFRAKECCKKGDIQCCLRYFEESGDPNVMLICLFCP (designed binder) [E06F variant of SEQ ID NO: 1], -1.96.
The figure for GSFDEYIERAKECCKKGDIQCCLRYFEESGDPNVMLICLFCP (designed binder) [P01F variant of SEQ ID NO: 1] is -1.3; for GSPDEYIERWKECCKKGDIQCCLRYFEESGDPNVMLICLFCP (designed binder) [A08W variant of SEQ ID NO: 1] it is -5.46.
GSPDEYIERPKECCKKGDIQCCLRYFEESGDPNVMLICLFCP (designed binder) [A08P variant of SEQ ID NO: 1] returned an enrichment score of -4.7.
For GSPDEWIERAKECCKKGDIQCCLRYFEESGDPNVMLICLFCP (designed binder) [Y04W variant of SEQ ID NO: 1] the value was -2.47.
As for GSPYEYIERAKECCKKGDIQCCLRYFEESGDPNVMLICLFCP (designed binder) [D02Y variant of SEQ ID NO: 1], the enrichment score is -1.63.
For GSPWEYIERAKECCKKGDIQCCLRYFEESGDPNVMLICLFCP (designed binder) [D02W variant of SEQ ID NO: 1] the value was -2.95.
The figure for GSPDFYIERAKECCKKGDIQCCLRYFEESGDPNVMLICLFCP (designed binder) [E03F variant of SEQ ID NO: 1] is 0.32; for GSPDEYIERAKFCCKKGDIQCCLRYFEESGDPNVMLICLFCP (designed binder) [E10F variant of SEQ ID NO: 1] it is -1.6.
The molecule GSPDEPIERAKECCKKGDIQCCLRYFEESGDPNVMLICLFCP (designed binder) [Y04P variant of SEQ ID NO: 1] came in with an enrichment score of 1.02.
For GSPDEYIERAKECCKKGDGQCCLRYFEESGDPNVMLICLFCP (designed binder) [I17G variant of SEQ ID NO: 1] the value was -5.4; for GSPDEYIERAKPCCKKGDIQCCLRYFEESGDPNVMLICLFCP (designed binder) [E10P variant of SEQ ID NO: 1], -3.72; for GSPDEYIERAWECCKKGDIQCCLRYFEESGDPNVMLICLFCP (designed binder) [K09W variant of SEQ ID NO: 1], -4.41.
Consider GSPDEYFERAKECCKKGDIQCCLRYFEESGDPNVMLICLFCP (designed binder) [I05F variant of SEQ ID NO: 1], for which the enrichment score was -8.36.
The figure for GSPDEFIERAKECCKKGDIQCCLRYFEESGDPNVMLICLFCP (designed binder) [Y04F variant of SEQ ID NO: 1] is 0.67; for GSPDEYIPRAKECCKKGDIQCCLRYFEESGDPNVMLICLFCP (designed binder) [E06P variant of SEQ ID NO: 1] it is -2.84.
In turn, GSPDEYIEPAKECCKKGDIQCCLRYFEESGDPNVMLICLFCP (designed binder) [R07P variant of SEQ ID NO: 1] came in with an enrichment score of -2.49.
For GSPDEYIEYAKECCKKGDIQCCLRYFEESGDPNVMLICLFCP (designed binder) [R07Y variant of SEQ ID NO: 1] the value was -1.01; for GSPDEYYERAKECCKKGDIQCCLRYFEESGDPNVMLICLFCP (designed binder) [I05Y variant of SEQ ID NO: 1], -10.9.
The figure for GSPDEYPERAKECCKKGDIQCCLRYFEESGDPNVMLICLFCP (designed binder) [I05P variant of SEQ ID NO: 1] is -0.43; for GSPDEYIERAKECCKKGEIQCCLRYFEESGDPNVMLICLFCP (designed binder) [D16E variant of SEQ ID NO: 1] it is -3.6.
GSPDEYIERAKECCKKGDIGCCLRYFEESGDPNVMLICLFCP (designed binder) [Q18G variant of SEQ ID NO: 1] showed an enrichment score of -2.03.
Molecule GSPDEYIERAKECCKKGGIQCCLRYFEESGDPNVMLICLFCP (designed binder) [D16G variant of SEQ ID NO: 1] came in with an enrichment score of -9.54.
For GSPDEYIERAFECCKKGDIQCCLRYFEESGDPNVMLICLFCP (designed binder) [K09F variant of SEQ ID NO: 1] the value was -3.52.
For GSPDEYIERAPECCKKGDIQCCLRYFEESGDPNVMLICLFCP (designed binder) [K09P variant of SEQ ID NO: 1] the value was -4.5.
The figure for GSPDEYIERAKVCCKKGDIQCCLRYFEESGDPNVMLICLFCP (designed binder) [E10V variant of SEQ ID NO: 1] is -1.77; for GSPDEYIEWAKECCKKGDIQCCLRYFEESGDPNVMLICLFCP (designed binder) [R07W variant of SEQ ID NO: 1] it is -1.28; for GSPDEYIWRAKECCKKGDIQCCLRYFEESGDPNVMLICLFCP (designed binder) [E06W variant of SEQ ID NO: 1] it is -1.53.
In the case of GSPDEYWERAKECCKKGDIQCCLRYFEESGDPNVMLICLFCP (designed binder) [I05W variant of SEQ ID NO: 1], the enrichment score is -7.46.
For GSPDEYIERAKYCCKKGDIQCCLRYFEESGDPNVMLICLFCP (designed binder) [E10Y variant of SEQ ID NO: 1] the value was -5.61; for GSPDEYIERAKECCKKDDIQCCLRYFEESGDPNVMLICLFCP (designed binder) [G15D variant of SEQ ID NO: 1], -0.26; for GSYDEYIERAKECCKKGDIQCCLRYFEESGDPNVMLICLFCP (designed binder) [P01Y variant of SEQ ID NO: 1], -3.33.
For GSPDEYIERAKECCKKGDIECCLRYFEESGDPNVMLICLFCP (designed binder) [Q18E variant of SEQ ID NO: 1] the value was -0.84; for GSPDEYIERAKECCEKGDIQCCLRYFEESGDPNVMLICLFCP (designed binder) [K13E variant of SEQ ID NO: 1], -0.1; for GSPDEYIERAKECCKEGDIQCCLRYFEESGDPNVMLICLFCP (designed binder) [K14E variant of SEQ ID NO: 1], 1.
The molecule GSPDEYIERAKWCCKKGDIQCCLRYFEESGDPNVMLICLFCP (designed binder) [E10W variant of SEQ ID NO: 1] yielded an enrichment score of -1.58.
For GSPDEYIERAKECCDKGDIQCCLRYFEESGDPNVMLICLFCP (designed binder) [K13D variant of SEQ ID NO: 1] the value was 0.43; for GSPDEYIERAKECCKKGDDQCCLRYFEESGDPNVMLICLFCP (designed binder) [I17D variant of SEQ ID NO: 1], -9.42; for GSPDEYIERAKECCKKEDIQCCLRYFEESGDPNVMLICLFCP (designed binder) [G15E variant of SEQ ID NO: 1], 1.99.
For GSPDEYIYRAKECCKKGDIQCCLRYFEESGDPNVMLICLFCP (designed binder) [E06Y variant of SEQ ID NO: 1] the value was -2.33; for GSPDEYIERAKECCKDGDIQCCLRYFEESGDPNVMLICLFCP (designed binder) [K14D variant of SEQ ID NO: 1], 1.27; for GSPDEYIERAKECCGKGDIQCCLRYFEESGDPNVMLICLFCP (designed binder) [K13G variant of SEQ ID NO: 1], 0.7.
GSPDEYIERAKECCKGGDIQCCLRYFEESGDPNVMLICLFCP (designed binder) [K14G variant of SEQ ID NO: 1] displayed an enrichment score of 1.11.
For GSWDEYIERAKECCKKGDIQCCLRYFEESGDPNVMLICLFCP (designed binder) [P01W variant of SEQ ID NO: 1] the value was -9.1.
The figure for GSPDEYIERAVECCKKGDIQCCLRYFEESGDPNVMLICLFCP (designed binder) [K09V variant of SEQ ID NO: 1] is -8.88; for GSPDWYIERAKECCKKGDIQCCLRYFEESGDPNVMLICLFCP (designed binder) [E03W variant of SEQ ID NO: 1] it is -1.4; for GSPDPYIERAKECCKKGDIQCCLRYFEESGDPNVMLICLFCP (designed binder) [E03P variant of SEQ ID NO: 1] it is -0.4.
The figure for GSPDEYIERYKECCKKGDIQCCLRYFEESGDPNVMLICLFCP (designed binder) [A08Y variant of SEQ ID NO: 1] is -3.35.
As to GSPDEYIERAYECCKKGDIQCCLRYFEESGDPNVMLICLFCP (designed binder) [K09Y variant of SEQ ID NO: 1], the enrichment score was -4.96.
For GSPDEYIERAKECCKKGDEQCCLRYFEESGDPNVMLICLFCP (designed binder) [I17E variant of SEQ ID NO: 1] the value was -0.3; for GSPDEYIERFKECCKKGDIQCCLRYFEESGDPNVMLICLFCP (designed binder) [A08F variant of SEQ ID NO: 1], -4.33.
